The nanobody polyreactivity screen of Harvey et al. (2022)

Test: yeast display, Sf9 membrane polyspecificity reagent, FACS + sequencing; frameworks hold sequencing errors
Outline: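 Genes from sorted yeast were amplified by colony PCR, read by MiSeq 2 × 250 sequencing and filtered on CDR length. These cells carried a synthetic nanobody library in Saccharomyces cerevisiae BJ5465 and were sorted by FACS into low and high (top ~1%) gates on anti-HA and streptavidin fluorescence. Polyreactivity is labelled according to the gate of origin.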

Sequence	polyreactivity (PSR sort gate)
QVQLVESGGGLVQAGGSLRLSCAASGNTFSNYAMGWYRQAPGKEREFVAAIRKSGASTYYADSVKGRFTISRDNAKNSVYLQMNSLKPEDTAVYYCAADGQVSFALGFDYWGQGTQVTVSS	high polyreactivity
QVQLVESGGGLVQAGGSLRLSCAASGRIFRYYTMGWYRQAPGKVRELVAAITRRGGITNYADSVTGRFTISRDNAKNTVYLQMNSLKPEDTAVYYCAAKSVSQGDDYWGQGTQVTVSS	high polyreactivity
QVQLVESGGGLVQAGGSLRLSCADSGIIFRYYSMGWYRQAPGKESEFVAAITGSSGSTYADSVKGRFTISRDNAKNTVYLQMNSLKPEDTAVYYCNADSYSIWVYGEYDYWGLGTQVTVSS	high polyreactivity
QVQLVESGGGLVQAGCSLRLSCAASGSIFSYYDMGSYRQAPGKERELVAGISRGGSTNYADSVKGRFTISRDNAKNTVYLQMNILKPEDTAVYYCNADQSSRTYPFRLSRRSLLYGYWGLGTQVTVSS	low polyreactivity
QVQLVESGGGLVQAGGSLRLSCAASGFTFITNAMGWYRQAPGKERELVAAISSSGGRTYYADSVKGRFTISRDNAKNTVYLQMNSLKPEDTAVYYCNADRSLLYSRKIEYDYWGQGTQVTVSS	low polyreactivity
QVQLVESGGGLVQAGGSLSLSCAASGRIFSYNDMGWYRQAPGKERELVAAITSNDGSTYYADSVKGRFTISRDNAKNTVYLQMNSLKPVDSAVSYCTADVLFLSSYGYDYWGQGTQVTVSS	low polyreactivity
HVQLVESGGGLVQAGGSLRLSCAASGFTFWDYTMGWYRQAPGKERELVAAISSSGGGTYYADSVKGRFTISRDNAKNTVYLQMNSLKPEDTAVDYCNAVRFLDYWYPDTYGDWGQGTQVTLSS	low polyreactivity
QVQLVESGGGLVQAGGSLRLSCAASGFIFIAYTMGWYRQAPGKERELVAAISSRGGRTYYADSVKGRFTISRDNAKNTVYLQMNSLKPEDTAVYYCAASYTYYSFGFGTDVRYGYWGQGTQVTVSS	high polyreactivity
QVQLVESGGGLVQAGGSLRLSCAASGSILRQYAMGWYRQAPGKERELVATITGDGSTNYADSVKGRFTISRDNAKNTVYLQMNSLKPEDTAVYYCNTYLTYPYPNVEVLVYGFKLDYWGQGTQVTVSS	low polyreactivity
LVQLVESGGGLVQAGGSLRVSCAASGLIIYDNAMGGYRQAPGKEREVVATISSGGRTYYADSVKGRFTISRDNAKNTVYLQMNSLKPEDTAVYYCAVDPGYSWYAQYDYWGQGTQVTVSS	low polyreactivity
QVQLVESGGGLVQAGGSLRLSCAASGSTFATYAMGWYRQAPGKERELVAAISKSGGSTYYADSVKGRFTISRDNAKNTVYLQMNSLKPEDTAVYYCAAVGPYRWYDYWGQGTQVTVSS	high polyreactivity
QVQLVESGGGLVQAGGSLRLICAASGFIFGLNAIGWYRQAPGKERELVAAIRSASSTNYADSVKGRFTISRDNAKNTVYLQMNSLKPEDTAVYYCAAEDFTRQFEYWGQGTQVTVSS	low polyreactivity
QVQLVESGGGLVQAGGSLRLSCAASGGIFGQYTMGWYRQAPGKERELVAGISKRGTLTRYADSVKGRFTISRDNAKNTVYLQMNSLKPEYSAVYYCNADYVGFFWEYDYWGQGTQVTVSS	high polyreactivity
QVQLVESGGGLVQAGGSLRISCAASGFIFASYTMGWYRQAPGKERELVAAISRAGSTYYADSVKGRFTISPDNAKNTVYLQMNSLKPEDTAVYYCNAVSWRTSRYDYWGQGTQVTVSS	high polyreactivity
QVQLVESGGGLVQAGGSLLLSCAASGSTFNDNAMGWYRQAPGKERELVAAIDSGGITNYADSVKGRFTISRDNAKNTVYLQMNSLKPEDTAVYYCAVEGEYLTPSGRYRLDYWGQGTEVTVSS	low polyreactivity
QVQLVESGGGLVQAGGSLRLSCAASGSISYDYAMGWDRQAPGKERELVASITSRGGSTYADSVKGRFTISRDKAKNTVYLQMNSLKPEDTAVYYCAADAIPNLIFISLPFGLDYWGQGTQVTVSS	low polyreactivity

Sequence	polyreactivity (PSR sort gate)
QVQLVESGGGLVQAGGSLRLSCAASGRIIYSNGMGWYRQAPGKERELVAAISSGGSTYNADSVKGRFTISRDNAKNTVYLQMNSLKPEDTAVYYCAADIDYERDRYDYWGQGSQVTVSS	low polyreactivity
QVQLVESGGGLVQAGGSLRLSCAASGGTFSTYAMGWYRQAPGKERELVAAISSTGGSTYYADSVKGRFTISRDNAKNTVYLQMNSLKPEDTAVYYCAAYYSRGWLLYWDEMYYWGQGTQVTVSS	high polyreactivity
QVQLVESGGGLVQAGGSLRLSCAASGNIFTNNAMGWYRQAPGKERELVAAISSSGGRTFYADSVKGRFTITRDNAKNTVNLQMNSLKPEDTSVYYCNKVASTRVSYLDMEYWGQGTQVTVSS	high polyreactivity
QVQHVESGGGLVQAGGSLRLRCAASARTFLANAMGWYRQAPGKERELLAAITYSGGRTYYADSVKGRFTISRDNAKNTVYLQMNSLKPEDTAVYYCAAEGKVTSQYTMDYWGLGTQVTVSS	high polyreactivity
QVQLVESGGGLFQAGGSLRLSCADSGSTFSLYAMGWDRQAPGKDRELVAAITWSGGSTYYADSEKGRFTISRDNAKTTVYLQMTSLPPEDTAVYYCAAHRIGYYLRVSYRGKYDHWGQGTQVTVSS	low polyreactivity
QVQLVESGGGLVQAGGSLRLSCAASGFILGVYAMGWYRQAPGKERELVAAITFSGASTYYADSVKGRFTISRDNAKNTVYLQMNSLKPEDTAVYYCNKTSAYYRYEYWGQGTQVTVSS	low polyreactivity
QVQLVESGGGLVQAGGSLRLSCAASGFTFRIYAMGWYRQAPGKERELVAAISWAGGSTFYADSVKGRFTISRDNAKNTVYLQMNSLKPEDTAVYYCAADTAFHYDYWGQGTQVTVSS	low polyreactivity
QVQLVESGGGLVQAGGSLRLIWAASGFTFWLNAMGWYRQAPGKERELVAAINWSGGSTYYADSVKGRFTISRDNAKNTVYLLMNILKPEDTAVYYCNRRGQYTFWPIHEYWGQGTQVTVSS	high polyreactivity
QVQLVESGGGLVQAGGRLRLSCAASGITFTFNAMGWYRQAPGKERELVAAITWSGGSTIYADSVKGRFTFSRDNAKNTVYLQMNSQKPEDTAVYNCARDTELYVRWLDYWGQGSQVTVSS	low polyreactivity
QVQLVESGGGLVQAGGSLRLSCAASGLIFISYAMGWYRQAPGKERELVAAITSTVGGTYYADSVKGRFTISRDNAKNTVYLQMNSLQPEDTAVYYCAKEVWTWGPYYYWGQGTQVTVSS	low polyreactivity
QVQLVESGGGLVQAGGSHRLSCAASGRIFSTYAMGWYRQAPGKERELVAAINKIGGSTYYADSVKGRFTISRDNAKNNVYLQMNSLKPEDTAVDYCAADAPHYPVRRYYYWGQGTQVTVSS	low polyreactivity
QVQLVESGGGLVQAGGSLRLSCAASGSTFEVYTMGWSIQSPGKVRELVATISGDDGSTYYADSVKGRFTISRDNAKNTVYLQMNSLKPEDTAVYYCAADYGGFPNYYSTGDYWGQGTQVTVSS	low polyreactivity
QVQLVESGGGLVQAGGSLRLSCAASGFIFNYYTMGWYRQAPGKEREFVAAIRRSGTRTYYADSVKGRFTISRDNAKNTVYLQMNSLKPEDTAVYYCAARGTSPGHGTYTRTRGQRYYYWGQGTQVTVSS	high polyreactivity
QVQLVESGGGLVQAGGSLRLSCAATGITFRYNAMGWYRLAPGKERELVAAITFSGGSTYYADSVKGRFTISRDNAKNTVYLQMNSLKPEDTAVYYCAKLGSTSSRGNYDYWGQGTQVTVSS	low polyreactivity
QVQLVESGGGLVQAGGSLRLSCAASGFTIYGYVMGWYRQAPGKERELVAAISWSGGSTYYADSVKGRFTISRDNAKNTVYLQMNSLKPEDTAVYYCAAEGWSDYTSRLYDYWGQGTQVTVSS	low polyreactivity
